Assay results reported in patent US20140072613A1, “Compositions and Methods for Treating Cutaneous Scarring” (priority 2012, published 2014).

Key:
Assay in all cases: cell-based or functional assay
[1] = target: Fes(h) (human) (UniProt P07332)
[2] = target: JAK2(h) (human) (UniProt O60674)
[3] = target: T1, TAO3(h) (human) (UniProt Q9H2K8)
T1 sequence (looked up): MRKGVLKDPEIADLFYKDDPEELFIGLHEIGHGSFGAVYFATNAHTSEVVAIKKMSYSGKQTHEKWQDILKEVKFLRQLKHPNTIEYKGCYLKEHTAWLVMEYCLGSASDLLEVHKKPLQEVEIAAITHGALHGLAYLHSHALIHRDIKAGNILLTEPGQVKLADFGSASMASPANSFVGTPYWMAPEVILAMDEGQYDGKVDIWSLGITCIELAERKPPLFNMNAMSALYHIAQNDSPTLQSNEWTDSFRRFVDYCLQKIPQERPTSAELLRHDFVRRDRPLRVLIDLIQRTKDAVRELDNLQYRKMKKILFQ

[4] = target: MSSK1(h) (human) (UniProt Q9UPE1)
Sequence of MSSK1(h) (human) (Q9UPE1 whole entry): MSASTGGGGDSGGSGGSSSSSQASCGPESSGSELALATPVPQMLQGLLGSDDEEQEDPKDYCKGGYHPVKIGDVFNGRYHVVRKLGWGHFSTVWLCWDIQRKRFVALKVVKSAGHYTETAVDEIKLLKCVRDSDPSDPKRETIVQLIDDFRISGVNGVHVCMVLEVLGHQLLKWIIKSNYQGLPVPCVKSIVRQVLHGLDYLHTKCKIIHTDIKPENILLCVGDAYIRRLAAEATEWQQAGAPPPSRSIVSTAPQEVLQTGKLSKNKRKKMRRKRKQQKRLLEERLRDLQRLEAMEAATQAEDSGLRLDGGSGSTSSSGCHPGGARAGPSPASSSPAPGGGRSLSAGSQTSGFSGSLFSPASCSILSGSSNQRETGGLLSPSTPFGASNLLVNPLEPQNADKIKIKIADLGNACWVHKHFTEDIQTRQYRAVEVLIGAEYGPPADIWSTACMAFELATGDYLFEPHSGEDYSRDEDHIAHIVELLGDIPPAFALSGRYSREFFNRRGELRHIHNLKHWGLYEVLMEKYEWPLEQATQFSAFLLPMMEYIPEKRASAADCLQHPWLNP

[5] = target: T2, NEK2(h) (human) (UniProt P51955)
T2 sequence (looked up): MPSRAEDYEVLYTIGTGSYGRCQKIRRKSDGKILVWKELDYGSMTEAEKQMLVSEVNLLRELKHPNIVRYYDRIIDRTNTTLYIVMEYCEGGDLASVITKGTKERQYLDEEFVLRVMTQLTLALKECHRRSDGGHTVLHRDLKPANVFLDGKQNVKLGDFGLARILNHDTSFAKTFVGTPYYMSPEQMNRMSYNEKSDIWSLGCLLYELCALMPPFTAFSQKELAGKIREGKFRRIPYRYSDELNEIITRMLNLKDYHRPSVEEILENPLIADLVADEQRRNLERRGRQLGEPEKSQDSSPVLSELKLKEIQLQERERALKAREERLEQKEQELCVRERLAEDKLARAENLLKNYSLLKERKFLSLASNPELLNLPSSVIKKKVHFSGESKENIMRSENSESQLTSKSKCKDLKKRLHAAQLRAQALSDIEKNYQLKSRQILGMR

[6] = target: T3, PrKX(h) (human) (UniProt P51817)
T3 sequence (looked up): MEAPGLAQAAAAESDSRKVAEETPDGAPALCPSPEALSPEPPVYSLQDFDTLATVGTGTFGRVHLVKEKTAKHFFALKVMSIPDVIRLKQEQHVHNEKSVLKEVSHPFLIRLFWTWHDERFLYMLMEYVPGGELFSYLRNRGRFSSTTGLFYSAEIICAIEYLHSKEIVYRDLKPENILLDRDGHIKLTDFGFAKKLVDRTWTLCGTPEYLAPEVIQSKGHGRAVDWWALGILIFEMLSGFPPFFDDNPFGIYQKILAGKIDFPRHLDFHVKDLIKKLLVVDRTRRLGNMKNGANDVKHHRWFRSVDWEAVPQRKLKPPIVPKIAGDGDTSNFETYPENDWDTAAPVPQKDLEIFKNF

[7] = target: T4, PKCζ(h) (human) (UniProt Q05513)
T4 sequence (looked up): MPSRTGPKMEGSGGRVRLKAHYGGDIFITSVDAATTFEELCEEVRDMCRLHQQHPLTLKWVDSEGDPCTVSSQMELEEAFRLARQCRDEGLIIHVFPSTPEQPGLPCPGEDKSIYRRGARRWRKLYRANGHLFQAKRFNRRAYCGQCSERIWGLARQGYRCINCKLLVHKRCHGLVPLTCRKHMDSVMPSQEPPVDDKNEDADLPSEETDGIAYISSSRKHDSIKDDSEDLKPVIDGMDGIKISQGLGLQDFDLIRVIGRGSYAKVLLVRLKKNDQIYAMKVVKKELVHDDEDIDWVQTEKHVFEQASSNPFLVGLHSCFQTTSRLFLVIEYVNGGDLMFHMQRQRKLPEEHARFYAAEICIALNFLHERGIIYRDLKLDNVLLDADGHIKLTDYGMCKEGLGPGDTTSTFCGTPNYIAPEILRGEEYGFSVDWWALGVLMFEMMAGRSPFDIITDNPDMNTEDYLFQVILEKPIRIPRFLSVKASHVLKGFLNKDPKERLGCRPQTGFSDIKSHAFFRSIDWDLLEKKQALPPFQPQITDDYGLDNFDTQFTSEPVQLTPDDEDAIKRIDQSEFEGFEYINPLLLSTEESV

[8] = target: HIPK1(h) (human) (UniProt Q86Z02)
Sequence of HIPK1(h) (human) (Q86Z02 158-555 limits assumed): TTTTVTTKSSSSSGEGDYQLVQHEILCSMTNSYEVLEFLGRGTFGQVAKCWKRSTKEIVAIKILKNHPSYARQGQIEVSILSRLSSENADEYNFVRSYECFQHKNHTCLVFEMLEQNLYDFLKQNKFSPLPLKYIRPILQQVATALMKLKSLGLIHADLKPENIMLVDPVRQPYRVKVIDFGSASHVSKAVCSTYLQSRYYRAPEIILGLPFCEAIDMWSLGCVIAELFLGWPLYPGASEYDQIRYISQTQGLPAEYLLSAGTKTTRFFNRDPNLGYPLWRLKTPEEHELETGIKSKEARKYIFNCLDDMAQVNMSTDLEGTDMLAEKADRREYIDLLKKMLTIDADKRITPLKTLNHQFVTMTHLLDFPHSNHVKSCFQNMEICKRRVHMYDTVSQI

[9] = target: SAPK2b(h) (human) (UniProt Q15759)
Sequence of SAPK2b(h) (human) (Q15759 whole entry): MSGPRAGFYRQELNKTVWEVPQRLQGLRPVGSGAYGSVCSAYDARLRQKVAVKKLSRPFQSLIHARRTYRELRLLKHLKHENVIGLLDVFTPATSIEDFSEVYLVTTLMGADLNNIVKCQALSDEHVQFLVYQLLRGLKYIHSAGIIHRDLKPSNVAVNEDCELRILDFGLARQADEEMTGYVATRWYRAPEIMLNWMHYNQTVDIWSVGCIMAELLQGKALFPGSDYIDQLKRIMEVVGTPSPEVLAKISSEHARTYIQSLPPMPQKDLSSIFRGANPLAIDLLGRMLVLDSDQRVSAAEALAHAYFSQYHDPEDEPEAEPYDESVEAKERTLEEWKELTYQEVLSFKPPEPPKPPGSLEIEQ

[10] = target: Abl(h) (human) (UniProt P00519)
Sequence of Abl(h) (human) (P00519 27-1130 limits assumed): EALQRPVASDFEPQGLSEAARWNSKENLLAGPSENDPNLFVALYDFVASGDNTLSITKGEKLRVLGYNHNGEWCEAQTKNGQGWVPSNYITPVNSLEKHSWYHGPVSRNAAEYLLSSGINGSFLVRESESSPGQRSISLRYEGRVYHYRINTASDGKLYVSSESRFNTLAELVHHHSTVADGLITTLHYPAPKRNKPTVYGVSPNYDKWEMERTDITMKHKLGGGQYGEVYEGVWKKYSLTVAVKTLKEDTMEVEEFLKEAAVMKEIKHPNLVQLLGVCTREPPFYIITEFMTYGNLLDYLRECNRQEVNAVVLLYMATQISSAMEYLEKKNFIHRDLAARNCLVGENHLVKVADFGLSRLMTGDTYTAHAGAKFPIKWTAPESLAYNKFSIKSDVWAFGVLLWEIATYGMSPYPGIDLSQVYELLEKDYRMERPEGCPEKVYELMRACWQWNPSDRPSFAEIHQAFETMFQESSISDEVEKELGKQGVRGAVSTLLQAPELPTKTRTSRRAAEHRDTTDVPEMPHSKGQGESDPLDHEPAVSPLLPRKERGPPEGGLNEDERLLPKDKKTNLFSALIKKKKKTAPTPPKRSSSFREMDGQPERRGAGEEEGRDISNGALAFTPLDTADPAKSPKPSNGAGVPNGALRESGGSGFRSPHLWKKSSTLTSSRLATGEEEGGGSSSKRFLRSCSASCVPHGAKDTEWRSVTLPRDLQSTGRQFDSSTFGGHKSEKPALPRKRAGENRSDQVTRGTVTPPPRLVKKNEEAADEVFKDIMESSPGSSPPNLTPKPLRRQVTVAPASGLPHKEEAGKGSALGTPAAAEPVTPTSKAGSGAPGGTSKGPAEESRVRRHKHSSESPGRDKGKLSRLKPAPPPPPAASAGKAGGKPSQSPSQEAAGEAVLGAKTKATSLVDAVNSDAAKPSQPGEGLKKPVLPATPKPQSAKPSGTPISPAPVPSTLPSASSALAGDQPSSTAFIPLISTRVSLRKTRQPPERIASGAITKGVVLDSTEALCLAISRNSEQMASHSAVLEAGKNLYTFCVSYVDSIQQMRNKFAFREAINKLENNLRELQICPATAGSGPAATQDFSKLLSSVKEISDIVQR

[11] = target: T5, SAPK3(h) (human) (UniProt P53778)
T5 sequence (looked up): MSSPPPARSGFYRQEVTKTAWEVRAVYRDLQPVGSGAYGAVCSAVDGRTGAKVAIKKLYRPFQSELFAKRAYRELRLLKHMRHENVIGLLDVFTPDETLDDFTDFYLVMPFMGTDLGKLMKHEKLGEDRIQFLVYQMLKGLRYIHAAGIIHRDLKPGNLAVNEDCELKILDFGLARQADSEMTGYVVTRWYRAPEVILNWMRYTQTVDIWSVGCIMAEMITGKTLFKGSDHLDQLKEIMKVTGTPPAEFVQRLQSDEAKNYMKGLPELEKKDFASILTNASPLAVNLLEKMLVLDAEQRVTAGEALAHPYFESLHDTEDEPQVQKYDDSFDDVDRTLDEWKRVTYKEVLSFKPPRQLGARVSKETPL

Sequence of JAK2(h) (human) (O60674 808-1132 limits assumed): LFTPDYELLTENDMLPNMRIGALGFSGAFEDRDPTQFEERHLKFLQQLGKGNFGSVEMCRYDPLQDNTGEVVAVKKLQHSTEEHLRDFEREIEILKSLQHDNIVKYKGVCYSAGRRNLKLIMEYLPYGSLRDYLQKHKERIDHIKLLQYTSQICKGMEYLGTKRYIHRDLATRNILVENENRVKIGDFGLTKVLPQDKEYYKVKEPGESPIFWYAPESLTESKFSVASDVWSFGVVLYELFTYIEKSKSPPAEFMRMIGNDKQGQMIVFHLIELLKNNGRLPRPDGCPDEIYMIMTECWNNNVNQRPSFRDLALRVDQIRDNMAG
Sequence of Fes(h) (human) (P07332 whole entry): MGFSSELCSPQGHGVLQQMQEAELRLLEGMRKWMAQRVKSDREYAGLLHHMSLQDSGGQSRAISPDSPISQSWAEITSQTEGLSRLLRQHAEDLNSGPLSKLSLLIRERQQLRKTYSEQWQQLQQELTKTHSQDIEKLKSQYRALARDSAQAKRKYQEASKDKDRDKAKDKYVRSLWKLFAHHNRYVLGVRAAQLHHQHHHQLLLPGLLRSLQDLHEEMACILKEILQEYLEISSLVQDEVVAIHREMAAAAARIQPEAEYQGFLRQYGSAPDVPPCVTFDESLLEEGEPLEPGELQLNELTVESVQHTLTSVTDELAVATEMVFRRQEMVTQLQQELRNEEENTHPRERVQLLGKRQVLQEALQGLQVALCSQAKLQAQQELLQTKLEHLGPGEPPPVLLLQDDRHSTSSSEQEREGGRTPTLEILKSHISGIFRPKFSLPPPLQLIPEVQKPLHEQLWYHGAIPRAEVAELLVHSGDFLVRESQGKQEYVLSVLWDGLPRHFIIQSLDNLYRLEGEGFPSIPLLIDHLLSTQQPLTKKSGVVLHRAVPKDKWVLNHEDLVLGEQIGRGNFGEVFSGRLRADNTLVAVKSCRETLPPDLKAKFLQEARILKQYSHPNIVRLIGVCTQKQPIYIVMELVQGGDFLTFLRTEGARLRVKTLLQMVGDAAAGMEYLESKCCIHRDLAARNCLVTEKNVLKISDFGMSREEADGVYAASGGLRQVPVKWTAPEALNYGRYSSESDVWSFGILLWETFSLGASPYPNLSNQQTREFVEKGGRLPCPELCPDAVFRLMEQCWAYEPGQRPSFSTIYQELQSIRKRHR

Substance: MMI-0500 (peptide)
- % activity, 100 µM [1]: 23%
- % activity, 100 µM [2]: 49%
- % activity, 100 µM [3]: 12%
- % activity, 100 µM [4]: 22%
- % activity, 100 µM [5]: 0%
- % activity, 100 µM [6]: 57%
- % activity, 100 µM [7]: 7%
- % activity, 100 µM [8]: 47%
- % activity, 100 µM [9]: 42%
- % activity, 100 µM [10]: 16%
- % activity, 100 µM [11]: 24%
